Experiment [1] deals with T1, human FGFR1b-IIIc extracellular domain with a HIS tag (human, UniProt P11362 22-376).
T1 construct: also called huFGFR1b-IIIc; hFGFR1b-IIIc
T1 sequence: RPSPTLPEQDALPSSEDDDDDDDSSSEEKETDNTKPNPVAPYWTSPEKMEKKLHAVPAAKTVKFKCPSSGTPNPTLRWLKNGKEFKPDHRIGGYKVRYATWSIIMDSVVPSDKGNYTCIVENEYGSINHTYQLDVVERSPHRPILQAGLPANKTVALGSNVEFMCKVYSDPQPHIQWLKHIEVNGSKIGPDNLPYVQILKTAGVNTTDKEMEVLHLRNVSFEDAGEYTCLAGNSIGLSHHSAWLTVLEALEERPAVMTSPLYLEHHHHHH
Nature of the experiment: ELISA, antibody titrated on huFGFR1b-IIIc, O.D. 450 nm [panel huFGFR1b-IIIc]. Background: ELISA stands for enzyme-linked immunosorbent assay.

In experiment [2] the target is FGFR1 on NCI-H520 cells (human, UniProt P11362 22-822). The experiment in a line: cell-based or functional assay.
FGFR1 on NCI-H520 cells, sequence (P11362 22-822): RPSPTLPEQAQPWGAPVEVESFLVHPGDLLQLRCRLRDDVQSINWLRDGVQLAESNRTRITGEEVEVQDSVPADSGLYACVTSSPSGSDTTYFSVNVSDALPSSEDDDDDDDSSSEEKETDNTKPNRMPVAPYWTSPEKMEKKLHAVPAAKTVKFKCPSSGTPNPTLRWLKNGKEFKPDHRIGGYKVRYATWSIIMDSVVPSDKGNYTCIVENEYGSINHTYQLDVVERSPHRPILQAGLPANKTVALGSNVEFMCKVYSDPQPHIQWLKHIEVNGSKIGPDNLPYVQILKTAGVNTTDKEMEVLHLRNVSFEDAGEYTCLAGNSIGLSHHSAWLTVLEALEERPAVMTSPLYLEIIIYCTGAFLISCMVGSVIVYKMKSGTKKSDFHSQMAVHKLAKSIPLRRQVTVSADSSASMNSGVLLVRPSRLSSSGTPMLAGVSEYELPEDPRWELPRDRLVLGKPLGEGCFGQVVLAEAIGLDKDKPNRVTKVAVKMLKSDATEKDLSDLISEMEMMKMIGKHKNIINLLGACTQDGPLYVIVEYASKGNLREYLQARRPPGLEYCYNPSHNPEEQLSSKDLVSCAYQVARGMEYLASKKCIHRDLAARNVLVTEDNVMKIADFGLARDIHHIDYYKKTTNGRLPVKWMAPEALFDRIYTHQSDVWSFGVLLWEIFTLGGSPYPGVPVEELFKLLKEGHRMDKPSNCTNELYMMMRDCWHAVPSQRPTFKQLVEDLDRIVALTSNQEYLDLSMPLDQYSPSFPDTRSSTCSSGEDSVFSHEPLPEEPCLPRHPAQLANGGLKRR
Experiment [3] addresses T2, FGFR1 D2 point mutant G92A (human, UniProt P11362 22-254).
T2 chain: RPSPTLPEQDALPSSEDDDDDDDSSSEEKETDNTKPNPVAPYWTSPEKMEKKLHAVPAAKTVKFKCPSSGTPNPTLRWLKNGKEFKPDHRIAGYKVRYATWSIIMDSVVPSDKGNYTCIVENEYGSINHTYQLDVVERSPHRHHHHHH
The experiment in a line: SPR; free energy change relative to wild-type D2. The method in brief:
(§1)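 Point mutants of FGFR1 D2, expressed in HEK cells, were tested by SPR against mAb #A08 captured via anti-human Fc to ~200 RU, in HBS-EP+ at 25° C. KD came from a 1:1 Langmuir fit (koff/kon), and ΔΔG was derived from the ratio of wild-type to mutant KD.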
A general note: SPR reads the build-up and loss of mass on a sensor chip optically.

The target of experiment [4] is T3, FGFR1 D2 point mutant A58G (human, UniProt P11362 22-254).
T3 chain: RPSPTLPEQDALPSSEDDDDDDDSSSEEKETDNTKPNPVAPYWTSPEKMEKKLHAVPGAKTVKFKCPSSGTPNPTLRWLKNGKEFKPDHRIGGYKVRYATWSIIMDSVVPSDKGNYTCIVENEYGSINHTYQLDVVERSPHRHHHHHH
Nature of the experiment: SPR; free energy change relative to wild-type D2. The method in brief: as §1

The target of experiment [5] is T4, FGFR1 D2 point mutant S102A (human, UniProt P11362 22-254).
T4 chain: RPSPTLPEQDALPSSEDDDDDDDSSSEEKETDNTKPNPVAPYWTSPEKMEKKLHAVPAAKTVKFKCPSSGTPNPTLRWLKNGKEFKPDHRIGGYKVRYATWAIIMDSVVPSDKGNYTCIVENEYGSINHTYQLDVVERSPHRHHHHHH
The experiment in a line: SPR; free energy change relative to wild-type D2. The method in brief:
as §1

Experiment [6] addresses T5, FGFR1 D2 point mutant K52A (human, UniProt P11362 22-254).
T5 chain: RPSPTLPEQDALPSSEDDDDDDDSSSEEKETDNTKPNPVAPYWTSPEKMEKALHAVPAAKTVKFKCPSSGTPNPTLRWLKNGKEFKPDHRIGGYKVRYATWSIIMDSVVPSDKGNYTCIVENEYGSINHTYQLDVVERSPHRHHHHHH
The experiment in a line: SPR; free energy change relative to wild-type D2. The method in brief: as §1

In experiment [7] the target is T6, FGFR1 D2 point mutant K86A (human, UniProt P11362 22-254).
T6 chain: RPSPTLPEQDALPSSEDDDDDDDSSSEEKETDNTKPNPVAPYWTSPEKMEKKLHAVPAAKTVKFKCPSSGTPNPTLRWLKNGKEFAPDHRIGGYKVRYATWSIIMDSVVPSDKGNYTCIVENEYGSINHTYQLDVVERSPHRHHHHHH
The experiment in a line: SPR; free energy change relative to wild-type D2. The method in brief:
as §1

Experiment [8] has as its target T7, FGFR1 D2 point mutant R97A (human, UniProt P11362 22-254).
T7 chain: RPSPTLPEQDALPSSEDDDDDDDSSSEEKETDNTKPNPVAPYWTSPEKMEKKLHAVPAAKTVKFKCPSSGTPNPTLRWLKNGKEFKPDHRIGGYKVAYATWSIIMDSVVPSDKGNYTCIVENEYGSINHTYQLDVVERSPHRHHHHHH
The experiment in a line: SPR; free energy change relative to wild-type D2. The gist of the method: as §1

Experiment [9] has as its target T8, Human FGFR1-IIIc D3-His6 (human, UniProt P11362 254-376).
T8 construct: also called D3 domain; F3FR1c-D3
T8 sequence: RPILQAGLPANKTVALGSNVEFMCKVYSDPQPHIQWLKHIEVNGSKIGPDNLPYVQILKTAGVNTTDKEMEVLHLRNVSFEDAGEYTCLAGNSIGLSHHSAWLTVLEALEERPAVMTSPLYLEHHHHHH
The experiment in a line: SPR (NBD indicates no binding detected).

B1: mAb #A08 (antibody, V domains shown)
VH: EVQLQESGPGLVKPSGTLSLTCAVSGGSISSNNWWSWVRQPPGKGLEWIGEIYHSGSTSYNPSLKSRVTISVDKSKNQFSLKLNSVTAADTAVYYCARGTDWFDPWGQGTLVTVSS
VL: QAVLTQPPSVSVAPGQTARITCGGNNIGSESVHWYQQKPGQAPVLVVYDDSDRPSGIPERFSGSNSGNTATLTISRVEAGDEADYYCQVWDSTSDHRVFGGGTKLTVL
notes: Only variable domains are tied to the name mAb #A08 (hit); also called #A08 hit; mAb #08
With B1, the EC50 (read off the curve) (usually the concentration that produces a half-maximal response) in experiment [1] was around 0.03 nM. For the same molecule, the “IC50, inhibition of P-FGFR1 in NCI-H520 cells, FGF1 stimulated” value in [2] came out at 4 nM. In experiment [2], the “IC50, inhibition of P-FGFR1 in NCI-H520 cells, FGF2 stimulated” value came to 0.2 nM. For the same molecule, the “IC50, inhibition of P-FGFR1 in NCI-H520 cells, non-stimulated (hashtag: estimated IC50, poor fit)” value in experiment [2] was around 1000 nM. In addition, the ΔΔGmut was 0.21 kcal/mol in [3]; 1.44 kcal/mol in experiment [4]; -0.13 kcal/mol in [5]; 0.11 kcal/mol in experiment [6]; -0.06 kcal/mol in experiment [7]; 1.83 kcal/mol in experiment [8]. Further, in [9], the binding result was “no binding”.

The values above are taken from patent US20190367620A1 (Merck KGaA, published 2019).
